Measured values as given in publication PMC3362863 (Traffic (Copenhagen, Denmark), 2011).

Target: the molecule itself
Experiment: cross-linking

B1: CHC-TFE3 fusion protein, Flag- or Myc-tagged (other, human, UniProt Q00610 1-932, looked up)
chain: MAQILPIRFQEHLQLQNLGINPANIGFSTLTMESDKFICIREKVGEQAQVVIIDMNDPSNPIRRPISADSAIMNPASKVIALKAGKTLQIFNIEMKSKMKAHTMTDDVTFWKWISLNTVALVTDNAVYHWSMEGESQPVKMFDRHSSLAGCQIINYRTDAKQKWLLLTGISAQQNRVVGAMQLYSVDRKVSQPIEGHAASFAQFKMEGNAEESTLFCFAVRGQAGGKLHIIEVGTPPTGNQPFPKKAVDVFFPPEAQNDFPVAMQISEKHDVVFLITKYGYIHLYDLETGTCIYMNRISGETIFVTAPHEATAGIIGVNRKGQVLSVCVEEENIIPYITNVLQNPDLALRMAVRNNLAGAEELFARKFNALFAQGNYSEAAKVAANAPKGILRTPDTIRRFQSVPAQPGQTSPLLQYFGILLDQGQLNKYESLELCRPVLQQGRKQLLEKWLKEDKLECSEELGDLVKSVDPTLALSVYLRANVPNKVIQCFAETGQVQKIVLYAKKVGYTPDWIFLLRNVMRISPDQGQQFAQMLVQDEEPLADITQIVDVFMEYNLIQQCTAFLLDALKNNRPSEGPLQTRLLEMNLMHAPQVADAILGNQMFTHYDRAHIAQLCEKAGLLQRALEHFTDLYDIKRAVVHTHLLNPEWLVNYFGSLSVEDSLECLRAMLSANIRQNLQICVQVASKYHEQLSTQSLIELFESFKSFEGLFYFLGSIVNFSQDPDVHFKYIQAACKTGQIKEVERICRESNCYDPERVKNFLKEAKLTDQLPLIIVCDRFDFVHDLVLYLYRNNLQKYIEIYVQKVNPSRLPVVIGGLLDVDCSEDVIKNLILVVRGQFSTDELVAEVEKRNRLKLLLPWLEARIHEGCEEPATHNALAKIYIDSNNNPERFLRENPYYDSRVVGKYCEKRDPHLACVAYERGQCDLELINLPVSGNLLDVYSSQGVATPAITVSNSCPAELPNIKREISETEAKALLKERQKKDNHNLIERRRRFNINDRIKELGTLIPKSSDPEMRWNKGTILKASVDYIRKLQKEQQRSKDLESRQRSLEQANRSLQLRIQELELQAQIHGLPVPPTPGLLSLATTSASDSLKPEQLDIEEEGRPGAATFHVGGGPAQNAPHQQPPAPPSDALLDLHFPSDHLGDLGDPFHLGLEDILMEEEEGVVGGLSGGALSPLRAASDPLLSSVSPAVSKASSRRSSFSMEEES
stoichiometry N: 2

B2: P2X4-GFP (receptor, UniProt P51577 1-388, looked up)
chain: MAGCCSVLGSFLFEYDTPRIVLIRSRKVGLMNRAVQLLILAYVIGWVFVWEKGYQETDSVVSSVTTKAKGVAVTNTSQLGFRIWDVADYVIPAQEENSLFIMTNMIVTVNQTQSTCPEIPDKTSICNSDADCTPGSVDTHSSGVATGRCVPFNESVKTCEVAAWCPVENDVGVPTPAFLKAAENFTLLVKNNIWYPKFNFSKRNILPNITTSYLKSCIYNAQTDPFCPIFRLGTIVEDAGHSFQEMAVEGGIMGIQIKWDCNLDRAASLCLPRYSFRRLDTRDLEHNVSPGYNFRFAKYYRDLAGKEQRTLTKAYGIRFDIIVFGKAGKFDIIPTMINVGSGLALLGVATVLCDVIVLYCMKKKYYYRDKKYKYVEDYEQGLSGEMNQ
stoichiometry N: 3
